Among the data in patent US12291504B2, “Small molecule inhibition of sulfotransferase SULT1A3” (University of Pittsburgh—Of the Commonwealth System of …, priority 2018, dated 2025) are Km and kcat values, retold here.

Substrate in the data set: Oc1ccc2ccc3cccc4ccc1c2c34
Briefly: SULT1A3 inhibition studies, 1-HP initial-rate fluorescence assay. The data set is classed as biochemical, human. Particulars: other: WT enzyme; saturating PAPS (500 μM, 17 × Km); pH 7.5; 25.0 °C. As for the experimental part: The initial rates of SULT catalyzed 1-HP sulfonation are plotted as a function of inhibitor concentration, and are normalized relative to [inhibitor]=0. Enzyme activity was monitored by the sulfonation dependent change in 1-HP fluorescence (λex=325 nm, λem=370 nm). Less than 5% of the concentration-limiting substrate converted at the reaction endpoint was consumed during initial-rate measurements. Each point is the average of three independent determinations. Conditions: SULT (20 nM, active sites), PAPS (0.50 mM, 17×Km), 1-HP (5.0 μM, 61×Km), KPO4 (50 mM), pH 7.5, 25±2° C.
Initial-Rate Studies. Initial-rate parameters for the labeled or mutant SULT1A3 constructs were determined using a previously described 1-HP assay (25). […] Reactions were monitored via fluorescence change associated with the conversion of 1-HP to 1-HP-S (λex=325 nm, λem=370 nm). […] Reaction progress curves were analyzed to obtain initial-rate parameters as described previously (26,27). […]
Initial-Rate Studies. Initial-rate parameters for the labeled or mutant SULT1A3 constructs were determined using a previously described 1-HP assay (47). […] Reactions were monitored via fluorescence change associated with the conversion of 1-HP to 1-HP-S (λex=325 nm, λem=370 nm). […] Reaction progress curves were analyzed to obtain initial-rate parameters as described previously (48,49). […]

The term kcat denotes the number of substrate molecules converted per active site and unit of time at saturation.

B1: SULT1A3 (Homo sapiens) (protein)
chain: MELIQDTSRPPLEYVKGVPLIKYFAEALGPLQSFQARPDDLLINTYPKSGTTWVSQILDMIYQGGDLEKCNRAPIYVRVPFLEVNDPGEPSGLETLKDTPPPRLIKSHLPLALLPQTLLDQKVKVVYVARNPKDVAVSYYHFHRMEKAHPEPGTWDSFLEKFMAGEVSYGSWYQHVQEWWELSRTHPVLYLFYEDMKENPKREIQKILEFVGRSLPEETMDFMVQHTSFKEMKKNPMTNYTTVPQELMDHSISPFMRKGMAGDWKTTFTVAQNERFDADYAEKMAGCSLSFRSEL
notes: Wild-type and mutant SULT1A3 coding regions were inserted into a pGEX-6P expression vector; N-His/GST/MBP triple-tag (N, cleaved yes); made in house; host or cells: E. coli BL21(DE3)
For B1, the Km is on record as 82 (3) nM and the kcat was found to be 2 s⁻¹.
